# Legend:
# [1] = biological target: membrane FcγRIIIA (human) (UniProt P08637); assay: flow cytometry on cells; competition: CD16-transduced NK92 cells (2 x 10^4) incubated with FITC-conjugated anti-CD16 3G8 (1:100) and increasing concentrations of TmAbs or sc-TmAbs, 30 min at 4°C; percent inhibition of 3G8 binding
# [2] = biological target: membrane FcγRIIIA (human) (UniProt P08637); assay: flow cytometry on cells
# UniProt P08637, sequence (P08637 17-208): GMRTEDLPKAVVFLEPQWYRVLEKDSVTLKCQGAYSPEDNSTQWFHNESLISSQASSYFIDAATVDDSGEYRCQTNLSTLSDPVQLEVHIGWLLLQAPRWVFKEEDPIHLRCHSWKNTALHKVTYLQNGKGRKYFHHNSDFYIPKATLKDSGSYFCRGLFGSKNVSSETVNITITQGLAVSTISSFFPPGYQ
Substance,maximal percent inhibition of 3G8 binding (at 3 mg/mL) [1] [%],maximal percent inhibition of 3G8 binding (at 3 mg/mL) [2] [%]
infliximab (antibody),80,–
rituximab (antibody),–,80
ipilimumab (antibody),–,80
cetuximab (antibody),–,80
trastuzumab (antibody),–,80
